Data on five molecules can be found in patent US8293529B2, “Method for inducing differentiation of pluripotent stem cells into cardiomyocytes” (Daiichi Sankyo Company, Limited, priority 2006, dated 2012).

In one experiment the test system is human ES cells. To be noted: rises from 15% without treatment; cited from earlier work.
The test system of experiment [1] is mouse ES cells. The experiment is described as follows: Appearance rate of EBs exhibiting spontaneous beating. The experiment is classed as cell-based. To be noted: for occurrence of beating EBs: Wnt proteins added at 10 ng/mL to 50 ng/mL; for appearance rate of beating EBs: recombinant protein added at 1 ng/mL to 100 ng/mL. Here is the method: Culture for inducing differentiation of ES cells into cardiomyocytes or neurons was accomplished in a routine manner as follows. ES cells were suspended in LIF-free medium, and the resulting suspension was seeded at 500 cells/50 μL per well of a commercially available 96-well culture plate for spheroid formation (Sumilon Celltight Spheroid; Sumitomo Bakelite Co., Ltd., Japan).
In the early stage of differentiation in ES cells, transient elevations in expression of various Wnt genes were observed prior to the appearance of cardiomyocytes. Then, ES cells at this stage were treated with recombinant Wnt proteins to study the myocardial differentiation-inducing effect of the proteins. Induction of ES cell differentiation was accomplished in the same manner as used in Example 1, except that some of the experimental groups were cultured in medium containing a commercially available recombinant WNT-1 (Peprotech), Wnt-3a (R&D systems) or Wnt-5a (R&D systems) protein. Treatment of ES cells in medium supplemented with a recombinant protein of canonical Wnt such as WNT-1 is hereinafter referred to as “Wnt treatment.”
The above canonical Wnt protein treatment is known to inhibit the action of GSK3β within cells and thereby promote stabilization of β-catenin and its transcription activation ability. Then, further studies were performed to confirm that treatment with various drugs capable of promoting stabilization of β-catenin and its transcription activation ability produced a myocardial differentiation-inducing effect on ES cells, as in the case of Wnt treatment. As drugs capable of promoting stabilization of β-catenin and its transcription activation ability, the following five commercially available compounds were used: GSK3β inhibitors BIO (Calbiochem), GSK3β inhibitor VII (Calbiochem), cell-permeable GSK3β peptide inhibitor (L803-mts; Calbiochem) and SB216763 (Biomol), as well as a Wnt agonist (Calbiochem) that promotes the transcription activation ability of β-catenin without GSK3β inhibition. ES cells were induced to differentiate in the same manner as used in the above Examples, and cultured in medium containing the above compounds during the time period between 48 and 120 hours ([…]) after induction of differentiation, as in the case of recombinant Wnt proteins.

The test system of experiment [2] is mouse ES cells. The experiment is described as follows: Wnt gene expression during induction of differentiation in ES cells (real-time PCR). The experiment is classed as cell-based. The settings on record: BMP antagonist treatment 15 ng/mL, 3 days before and immediately after induction; 72 hours after induction of differentiation; vs untreated group. The source says: Various Wnt genes were studied for their expression during differentiation in mouse ES cells. For use in experiments, mouse ES cells were passaged and maintained in an undifferentiated state according to the methods as described in “Manipulating the Mouse Embryo: A Laboratory Manual” (Hogan et al., eds., Cold Spring Harbor Laboratory Press, 1994) and “Embryonic Stem Cells: Methods and Protocols” (Turksen ed., Humana Press, 2002) by using Knockout-DMEM (Invitrogen) medium containing 20% fetal bovine serum, 2 mmol/L L-glutamine and 0.1 mmol/L 2-mercaptoethanol (hereinafter referred to as ESM), supplemented with 1000 U/mL LIF (ESGRO; Chemicon). […]
The EBs thus prepared were collected periodically, and total RNA was prepared with an RNeasy mini kit (Qiagen), followed by DNase treatment. cDNA was synthesized from the DNase-treated total RNA (1 μg) using a SuperScript™ First-Strand Synthesis System for RT-PCR (Invitrogen). Analysis of gene expression was performed with an ABI PRISM 7700 (PE Applied Biosystems) by using a real-time polymerase chain reaction (PCR) quantification system with Lux primers to examine the expression level of each gene. The real-time PCR quantification was accomplished by using the above cDNA as a template and using Platinum Quantitative PCR SuperMix-UDG (Invitrogen) according to the instructions attached thereto. […]
(In general: In qPCR the cycle at which signal appears reflects the starting amount.)

A further experiment relates to cmES cells. As to the kind of experiment: Immunohistochemical staining of marker proteins in EBs from cmES cells. It is filed as cell-based, common marmoset. To be noted: EBs at 16 days after induction of differentiation. Here is the method:
Subsequently, immunohistochemical staining was performed in the same manner as used in Example 2 to confirm that beating cells developed in EBs from the Wnt-treated groups were cardiomyocytes producing specific marker proteins. From EBs in the Wnt-treated groups (Wnt-3a, WNT-1) at 16 days after induction of differentiation, frozen sections were prepared and reacted with anti-sarcomeric myosin antibody, anti-GATA-4 antibody or anti-Nkx-2.5 antibody as a primary antibody. After color reaction, these sections were observed under an optical microscope.

In experiment [3] the test system is mouse ES cells. As to the kind of experiment: Immunohistochemical staining of cardiomyocyte-specific marker proteins in EBs. The experiment is classed as cell-based. The settings on record: EBs at 10 days after induction of differentiation. Here is the method:
Subsequently, immunohistochemical staining was performed to confirm that beating cells developed in EBs from the Wnt-treated groups produced cardiomyocyte-specific marker proteins. EBs in the Wnt-treated group (Wnt^48˜120h group) at 10 days after induction of differentiation were freshly embedded in a compound for preparing frozen sections (OCT Compound, Sakura Finetek USA Inc.) and then frozen with liquid nitrogen. The frozen samples were sectioned at 6 μm of thickness and attached on glass slides. These frozen sections were reacted with anti-sarcomeric myosin antibody (MF20; American Type Culture Collection), anti-GATA-4 antibody (C-20; Santa Cruz) or anti-Nkx-2.5 antibody (N-19; Santa Cruz) as a primary antibody and then reacted with a horseradish peroxidase-labeled secondary antibody (Bio-RAD), and finally subjected to a color reaction with ACE (3-amino-9-ethylcarbazole) substrate solution (Nichirei Corporation, Japan) and observed under an optical microscope.

Take `Nc1ncn([C@@H]2O[C@H](CO)[C@@H](O)[C@H]2O)c(=O)n1` [5-azacytidine]: in the experiment on human ES cells, the “percentage of troponin I-positive cells (candidate cardiomyocytes) in EBs” value is on record as 44%.

B1: Chordin: commercially available recombinant Chordin protein (R&D systems), BMP antagonist (protein, UniProt Q9H2X0 27-955, looked up)
Chordin: AGPEPPVLPIRSEKEPLPVRGAAGCTFGGKVYALDETWHPDLGEPFGVMRCVLCACEAPQWGRRTRGPGRVSCKNIKPECPTPACGQPRQLPGHCCQTCPQERSSSERQPSGLSFEYPRDPEHRSYSDRGEPGAEERARGDGHTDFVALLTGPRSQAVARARVSLLRSSLRFSISYRRLDRPTRIRFSDSNGSVLFEHPAAPTQDGLVCGVWRAVPRLSLRLLRAEQLHVALVTLTHPSGEVWGPLIRHRALAAETFSAILTLEGPPQQGVGGITLLTLSDTEDSLHFLLLFRGLLEPRSGGLTQVPLRLQILHQGQLLRELQANVSAQEPGFAEVLPNLTVQEMDWLVLGELQMALEWAGRPGLRISGHIAARKSCDVLQSVLCGADALIPVQTGAAGSASLTLLGNGSLIYQVQVVGTSSEVVAMTLETKPQRRDQRTVLCHMAGLQPGGHTAVGICPGLGARGAHMLLQNELFLNVGTKDFPDGELRGHVAALPYCGHSARHDTLPVPLAGALVLPPVKSQAAGHAWLSLDTHCHLHYEVLLAGLGGSEQGTVTAHLLGPPGTPGPRRLLKGFYGSEAQGVVKDLEPELLRHLAKGMASLMITTKGSPRGELRGQVHIANQCEVGGLRLEAAGAEGVRALGAPDTASAAPPVVPGLPALAPAKPGGPGRPRDPNTCFFEGQQRPHGARWAPNYDPLCSLCTCQRRTVICDPVVCPPPSCPHPVQAPDQCCPVCPEKQDVRDLPGLPRSRDPGEGCYFDGDRSWRAAGTRWHPVVPPFGLIKCAVCTCKGGTGEVHCEKVQCPRLACAQPVRVNPTDCCKQCPVGSGAHPQLGDPMQADGPRGCRFAGQWFPESQSWHPSVPPFGEMSCITCRCGAGVPHCERDDCSLPLSCGSGKESRCCSRCTAHRRPAPETRTDPELEKEAEGS
As for B1, the “regions of EBs exhibiting beating” value with mouse ES cells [1] (Wnt 48-96 h and 48-120 h groups, Chordin-treated EBs) is recorded as “beating throughout virtually all regions of their surface layer”. For the same molecule, in the experiment with mouse ES cells [2], the “expression levels of the Wnt genes (Wnt-3, Wnt-3a, Wnt-8a)” value is on record as “significantly higher than those of the untreated group”.

B2: WNT-1: commercially available recombinant human-derived WNT-1 protein (Peprotech), canonical Wnt (protein, listed as Mus musculus)
chain: MGLWALLPSWVSTTLLLALTALPAALAANSSGRWWGIVNIASSTNLLTDSKSLQLVLEPSLQLLSRKQRRLIRQNPGILHSVSGGLQSAVRECKWQFRNRRWNCPTAPGPHLFGKIVNRGCRETAFIFAITSAGVTHSVARSCSEGSIESCTCDYRRRGPGGPDWHWGGCSDNIDFGRLFGREFVDSGEKGRDLRFLMNLHNNEAGRTTVFSEMRQECKCHGMSGSCTVRTCWMRLPTLRAVGDVLRDRFDGASRVLYGNRGSNRASRAELLRLEPEDPAHKPPSPHDLVYFEKSPNFCTYSGRLGTAGTAGRACNSSSPALDGCELLCCGRGHRTRTQRVTERCNCTFHWCCHVSCRNCTHTRVLHECL
Take B2: the “cells positive for sarcomeric myosin, GATA-4 and Nkx-2.5” value in the experiment with cmES cells is “the great majority of EB-constituting cells were found to be positive”. In the experiment on mouse ES cells [1], the “occurrence of beating EBs” value was “very good occurrence of beating EBs” and the “appearance rate of beating EBs” value is listed as “significantly higher than in the untreated group”.

B3: DAN: commercially available recombinant DAN protein (R&D systems), BMP antagonist (protein, UniProt P41271 17-181, looked up)
Neuroblastoma suppressor of …: AAPPPINKLALFPDKSAWCEAKNITQIVGHSGCEAKSIQNRACLGQCFSYSVPNTFPQSTESLVHCDSCMPAQSMWEIVTLECPGHEEVPRVDKLVEKILHCSCQACGKEPSHEGLSVYVQGEDGPGSQPGTHPHPHPHPHPGGQTPEPEDPPGAPHTEEEGAED
As to B3, the “cells positive for sarcomeric myosin, Nkx-2.5 and GATA-4” value in the experiment with mouse ES cells [3] was “the great majority of EB-constituting cells were found to be positive”. In addition, in the experiment on mouse ES cells [2], the “expression levels of the Wnt genes (Wnt-3, Wnt-3a, Wnt-8a)” value is listed as “significantly higher than those of the untreated group”.

B4: Wnt-5a: commercially available recombinant mouse-derived Wnt-5a protein (R&D systems) (protein, listed as Mus musculus)
chain: MKKPIGILSPGVALGTAGGAMSSKFFLMALATFFSFAQVVIEANSWWSLGMNNPVQMSEVYIIGAQPLCSQLAGLSQGQKKLCHLYQDHMQYIGEGAKTGIKECQYQFRHRRWNCSTVDNTSVFGRVMQIGSRETAFTYAVSAAGVVNAMSRACREGELSTCGCSRARPKDLPRDWLWGGCGDNIDYGHPFAKEFVDARERERIHAKGSYESARILMNLHNNEAGRRTVYNLADVACKCHGVSGSCSLKTCWLQLADFRKVGDALKEKYDSAAAMRLNSRGKLVQVNSRFNSPTTQDLVYIDPSPDYCVRNESTGSLGTQGRLCNKTSEGMDGCELMCCGRGYDQFKTVQTERCHCKFHWCCYVKCKKCTEIVDQFVCK
In the case of B4, in the experiment with mouse ES cells [1], the “occurrence of beating EBs” value is reported as “very good occurrence of beating EBs” and the “appearance rate of beating EBs” value is reported as “significantly higher than in the untreated group”.
